Measured values reported in patent publication US6060451.

How the values were obtained:
[1] = molecular target: bovine α-thrombin (bovine) (UniProt P00735); experiment: inhibition of thrombin-mediated hydrolysis of Tosyl-Gly-Pro-Arg-AMC (fluorogenic amidolytic assay)
[2] = molecular target: human α-thrombin (human) (UniProt P00734); experiment: as above
[3] = molecular target: bovine α-thrombin (bovine) (UniProt P00735)
[4] = molecular target: human α-thrombin (human) (UniProt P00734)
[5] = molecular target: thrombin; experiment: Ki, antithrombin activity in vitro (amidolytic assay of thrombin activity)

Row | Substance | Ki [2] | other results
1 | P51 hirudin^45-55 (from UniProt P01050) (peptide) | 110 nM | Ki [1]: 720 nM
2 | P53 [D-Phe^45, Arg^47 ]hirudin^45-65 (peptide) |  | IC50, inhibition of fibrin clot formation [3]: 70 nM; IC50, inhibition of fibrin clot formation [4]: 4 nM
3 | P54 [Thr^45, Arg^47, D-Pro^48 ]hirudin^45-65 (from UniProt P01050) (peptide) | 72 nM | 
4 | P73 [D-Phe^45, Ala^47 ]hirudin^45-65 (from UniProt P01050) (peptide) | 41 nM | 
5 | r-Hirudin HV2 (from UniProt P09945) | 0.00038 nM | Ki [5]: 0.0004 nM
